# Results as given in patent US20240109954A1 (GENERAL HOSPITAL, published 2024).
# Assays:
# [1] = molecular target: T1, human FcγR3A (F158) (human, UniProt P08637 17-208); assay: SPR, mAb printed on chip, FcγR injected; fold-change of KD relative to IgG1, same SPR measurement
# T1 construct: also called huFcγR3A
# [2] = molecular target: T2, human FcγR2A (R131) (human, UniProt P12318 34-217); assay: as above
# T2 construct: also called huFcγR2A
# T2 sequence: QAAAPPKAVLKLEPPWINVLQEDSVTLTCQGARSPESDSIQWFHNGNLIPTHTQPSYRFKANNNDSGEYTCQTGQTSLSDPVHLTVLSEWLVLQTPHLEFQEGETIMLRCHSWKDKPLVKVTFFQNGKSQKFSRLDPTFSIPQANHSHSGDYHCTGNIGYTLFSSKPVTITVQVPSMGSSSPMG
# [3] = molecular target: T1, human FcγR3A (F158); assay: SPR, mAb printed on chip, FcγR injected; SPR KD of Table 6: measurable but very weak (0.003-fold of IgG1)
# [4] = molecular target: T3, mouse FcγRIII (mouse, UniProt P08508 31-215); assay: BLI, mAb on anti-human Fab-CH1 sensor, FcγR in solution; monomeric mAb:receptor affinity of Table 6 (weak binding)
# T3 construct: also called mFcγRIII; mFcγR3
# T3 sequence: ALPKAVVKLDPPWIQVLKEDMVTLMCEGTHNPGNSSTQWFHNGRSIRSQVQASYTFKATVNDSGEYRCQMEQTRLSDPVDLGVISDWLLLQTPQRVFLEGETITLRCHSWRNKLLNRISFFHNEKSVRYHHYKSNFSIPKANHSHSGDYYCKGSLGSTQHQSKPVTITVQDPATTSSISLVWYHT
# [5] = molecular target: T4, mouse FcγRIV (mouse, UniProt A0A0B4J1G0 21-203); assay: BLI, mAb on anti-human Fab-CH1 sensor; ND = not detected
# T4 construct: also called mFcγRIV
# T4 sequence: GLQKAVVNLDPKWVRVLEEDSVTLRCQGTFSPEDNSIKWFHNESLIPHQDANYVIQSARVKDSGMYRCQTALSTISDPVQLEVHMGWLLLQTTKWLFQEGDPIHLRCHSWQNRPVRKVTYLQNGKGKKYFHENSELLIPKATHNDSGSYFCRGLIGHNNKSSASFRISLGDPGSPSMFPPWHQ
# [6] = molecular target: T5, mouse FcγRI (mouse, UniProt P26151 25-297); assay: as above
# T5 construct: also called mFcγRI
# T5 sequence: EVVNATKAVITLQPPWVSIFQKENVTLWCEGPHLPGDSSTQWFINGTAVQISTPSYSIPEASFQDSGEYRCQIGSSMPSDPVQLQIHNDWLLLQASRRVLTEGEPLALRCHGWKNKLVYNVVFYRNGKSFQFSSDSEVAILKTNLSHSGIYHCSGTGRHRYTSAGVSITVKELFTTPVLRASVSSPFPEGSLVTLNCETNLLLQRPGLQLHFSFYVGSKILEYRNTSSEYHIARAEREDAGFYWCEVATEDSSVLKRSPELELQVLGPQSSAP
# [7] = molecular target: T6, mouse FcγRIIb (mouse, UniProt P08101 30-210); assay: as above
# T6 construct: also called mFcγRIIb; mFcγR2b
# T6 sequence: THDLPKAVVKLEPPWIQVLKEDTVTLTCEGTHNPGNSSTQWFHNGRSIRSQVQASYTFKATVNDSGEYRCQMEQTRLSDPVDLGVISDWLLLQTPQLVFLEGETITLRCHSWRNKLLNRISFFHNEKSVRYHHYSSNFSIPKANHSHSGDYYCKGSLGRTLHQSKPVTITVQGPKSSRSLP
# [8] = molecular target: T7, human FcγR2B (human, UniProt P31994 43-217); assay: SPR, mAb printed on chip, FcγR injected; ND = not detected
# T7 construct: also called huFcγR2B
# T7 sequence: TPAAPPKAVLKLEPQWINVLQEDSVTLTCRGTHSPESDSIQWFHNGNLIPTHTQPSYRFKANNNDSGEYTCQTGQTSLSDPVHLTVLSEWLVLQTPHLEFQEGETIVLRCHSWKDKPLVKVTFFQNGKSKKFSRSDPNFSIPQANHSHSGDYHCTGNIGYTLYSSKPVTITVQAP
# [9] = molecular target: T8, human FcγR3B (human, UniProt O75015 17-200); assay: as above
# T8 construct: also called huFcγR3B
# T8 sequence (O75015 17-200): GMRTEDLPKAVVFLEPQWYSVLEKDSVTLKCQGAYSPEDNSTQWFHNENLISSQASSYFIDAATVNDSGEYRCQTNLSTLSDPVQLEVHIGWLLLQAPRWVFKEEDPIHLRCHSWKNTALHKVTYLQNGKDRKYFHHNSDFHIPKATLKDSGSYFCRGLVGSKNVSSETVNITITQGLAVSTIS
# [10] = molecular target: T2, human FcγR2A (R131); assay: SPR, mAb printed on chip, FcγR injected; SPR KD of Table 6: measurable but very weak (0.03-fold of IgG1)
# [11] = molecular target: T4, mouse FcγRIV; assay: BLI, mAb on anti-human Fab-CH1 sensor, FcγR in solution
# [12] = molecular target: T3, mouse FcγRIII; assay: as above
# [13] = molecular target: T5, mouse FcγRI; assay: as above
# [14] = molecular target: T6, mouse FcγRIIb; assay: as above
# [15] = molecular target: T1, human FcγR3A (F158); assay: SPR, mAb printed on chip, FcγR injected
# [16] = molecular target: T2, human FcγR2A (R131); assay: SPR, mAb printed on chip, FcγR injected
# [17] = molecular target: T7, human FcγR2B; assay: SPR, mAb printed on chip, FcγR injected
# [18] = molecular target: T8, human FcγR3B; assay: SPR, mAb printed on chip, FcγR injected
# [19] = molecular target: T4, mouse FcγRIV; assay: BLI, mAb on anti-human Fab-CH1 sensor, FcγR in solution; remark: listed apart in the source
# [20] = molecular target: T3, mouse FcγRIII; assay: as above; remark: listed apart in the source
# [21] = molecular target: T6, mouse FcγRIIb; assay: as above; remark: listed apart in the source
# [22] = molecular target: T2, human FcγR2A (R131); assay: SPR, mAb printed on chip, FcγR injected; remark: listed apart in the source
# T1 sequence (P08637 17-208): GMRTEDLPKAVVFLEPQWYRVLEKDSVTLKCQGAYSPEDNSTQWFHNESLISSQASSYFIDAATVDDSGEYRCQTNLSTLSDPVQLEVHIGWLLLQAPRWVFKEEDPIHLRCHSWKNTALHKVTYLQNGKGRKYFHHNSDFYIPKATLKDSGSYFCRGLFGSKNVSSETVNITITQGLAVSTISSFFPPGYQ
binder,measurement,setting,value
VIC16-LALA (antibody) heavy: not shown light: DIVITQDTASLAVSRGQRATISCRASESVEYYGTTLMQWYQQRPGQPPKLLIYGASNVESGVPARFSGSGSGTDFSLNIHPVEEDDIAMYFCQQSRKVPYTFGGGTKLEIKRTVAAPSVFIFPPSDEQLKSGTASVVCLLNNFYPREAKVQWKVDNALQSGNSQESVTEQDSKDSTYSLSSTLTLSKADYEKHKVYACEVTHQGLSSPVTKSFNRGEC,fold-change relative to IgG1,[1],0.003 fold
same,fold-change relative to IgG1,[2],0.03 fold
same,Kd,[3],1700 µM
same,Kd,[4],820 µM
same,binding result,[5],no binding (tested: FcγR from 200 nM)
same,binding result,[6],no binding (tested: FcγR from 200 nM)
same,binding result,[7],no binding (tested: FcγR from 600 nM)
same,binding result,[8],no binding (tested: FcγR 10 µM to 0.005 µM)
same,binding result,[9],no binding (tested: FcγR 10 µM to 0.005 µM)
same,Kd,[10],892 µM
VIC16-SDIEALGA (antibody) heavy: QVQFQQSGAELAKLGASVKMSCKASGYTFTKYWMHWIKQRPGQGLEWIGYINPSTGYSENNQKFKGKAILTADKSSSTAYMQLSSLTSDDSAVYYCVRGYDSHYYVMDYWGQGTSVTVSSASTKGPSVFPLAPSSKSTSGGTAALGCLVKDYFPEPVTVSWNSGALTSGVHTFPAVLQSSGLYSLSSVVTVPSSSLGTQTYICNVNHKPSNTKVDKKVEPKSCDKTHTCPPCPAPELLAGPDVFLFPPKPKDTLMISRTPEVTCVVVDVSHEDPEVKFNWYVDGVEVHNAKTKPREEQYNSTYRVVSVLTVLHQDWLNGKEYKCKVSNKALPLPEEKTISKAKGQPREPQVYTLPPSREEMTKNQVSLTCLVKGFYPSDIAVEWESNGQPENNYKTTPPVLDSDGSFFLYSKLTVDKSRWQQGNVFSCSVMHEALHNHYTQKSLSLSPGK light: DIVITQDTASLAVSRGQRATISCRASESVEYYGTTLMQWYQQRPGQPPKLLIYGASNVESGVPARFSGSGSGTDFSLNIHPVEEDDIAMYFCQQSRKVPYTFGGGTKLEIKRTVAAPSVFIFPPSDEQLKSGTASVVCLLNNFYPREAKVQWKVDNALQSGNSQESVTEQDSKDSTYSLSSTLTLSKADYEKHKVYACEVTHQGLSSPVTKSFNRGEC,Kd,[11],0.001 µM
same,fold-change relative to IgG1,[11],235 fold
same,Kd,[12],0.01 µM
same,fold-change relative to IgG1,[12],0.16 fold
same,Kd,[13],0.1 µM
same,fold-change relative to IgG1,[13],0.8 fold
same,Kd,[14],0.13 µM
same,fold-change relative to IgG1,[14],114 fold
same,Kd,[15],0.675 µM
same,fold-change relative to IgG1,[15],9 fold
same,Kd,[16],1.6 µM
same,fold-change relative to IgG1,[16],19 fold
same,Kd,[17],21 µM
same,fold-change relative to IgG1,[17],1.1 fold
same,Kd,[18],3.2 µM
same,fold-change relative to IgG1,[18],7.8 fold
same,fold increase in binding,[19],14 fold
same,fold decrease in binding compared to IgG1,[20],6 fold
same,fold increase in binding,[21],4 fold
same,fold increase in KD compared to the VIC16 human IgG1,[22],18 fold
